Source: the Immune Epitope Database (IEDB)

How the values were obtained:
[1] = target: HLA-A*69:01; assay: IEDB peptide-MHC binding, purified MHC/direct/fluorescence; filed as Kd, often an IC50 or EC50 that approximates it; ≥ and ≤ were set here for values at or beyond the usual limits of such assays
[2] = target: HLA-B*27:05; assay: as above; conditions: source organism: Homo sapiens
[3] = target: HLA-A*03:01; assay: IEDB peptide-MHC binding, purified MHC/competitive/radioactivity; filed as Kd, often an IC50 or EC50 that approximates it; ≥ and ≤ were set here for values at or beyond the usual limits of such assays
[4] = target: HLA-A*30:01; assay: as above
[5] = target: HLA-A*30:02; assay: as above
[6] = target: HLA-A*11:01; assay: IEDB peptide-MHC binding, purified MHC/direct/fluorescence; filed as Kd, often an IC50 or EC50 that approximates it; ≥ and ≤ were set here for values at or beyond the usual limits of such assays
[7] = target: HLA-B*15:01; assay: as above
[8] = target: HLA-B*58:01; assay: as above
[9] = target: HLA-A*02:01; assay: IEDB peptide-MHC binding, purified MHC/competitive/fluorescence; ≥ and ≤ were set here for values at or beyond the usual limits of such assays
[10] = target: HLA-A*01:01; assay: IEDB peptide-MHC binding, purified MHC/competitive/radioactivity; filed as Kd, often an IC50 or EC50 that approximates it; ≥ and ≤ were set here for values at or beyond the usual limits of such assays
[11] = target: HLA-A*26:01; assay: as above
[12] = target: HLA-B*07:02; assay: IEDB peptide-MHC binding, purified MHC/direct/fluorescence; filed as Kd, often an IC50 or EC50 that approximates it; ≥ and ≤ were set here for values at or beyond the usual limits of such assays
[13] = target: HLA-B*40:01; assay: as above
[14] = target: HLA-A*02:01; assay: as above
[15] = target: HLA-A*31:01; assay: as above
[16] = target: HLA-A*03:01; assay: as above
[17] = target: HLA-A*23:01; assay: IEDB peptide-MHC binding, purified MHC/competitive/radioactivity; filed as Kd, often an IC50 or EC50 that approximates it; ≥ and ≤ were set here for values at or beyond the usual limits of such assays
[18] = target: HLA-A*02:02; assay: as above
[19] = target: HLA-A*02:03; assay: as above
[20] = target: HLA-A*02:06; assay: as above
[21] = target: HLA-A*11:01; assay: as above; conditions: source organism: Dengue virus 2 Jamaica/1409/1983
[22] = source organism: Dengue virus 1 Brazil/97-11/1997
[23] = source organism: Dengue virus 2 Jamaica/1409/1983
[24] = source organism: Vaccinia virus WR
[25] = source organism: Zaire ebolavirus
[26] = source organism: Dengue virus 3 Martinique/1243/1999
[27] = source organism: Mycobacterium tuberculosis
[28] = source organism: Dengue virus 4 Philippines/H241/1956
[29] = source organism: Vaccinia virus Copenhagen
[30] = source organism: Dengue virus 2 Peru/IQT2913/1996
[31] = source organism: Vibrio cholerae
[32] = source organism: Bacillus anthracis
[33] = source organism: Entamoeba histolytica HM-1:IMSS
[34] = source organism: Pseudomonas aeruginosa
[35] = source organism: Sudan ebolavirus
[36] = source organism: Vaccinia virus
[37] = source organism: Dengue virus 4 Thailand/0348/1991
[38] = source organism: Escherichia coli
[39] = source organism: Mammarenavirus lassaense
[40] = source organism: SARS coronavirus Tor2
[41] = source organism: Escherichia coli O157:H7

AHSTIMPRL
Kd ([1]; source organism: Homo sapiens): 0.832 µM | Kd [2]: 8.62 µM

AIKVLRGFK
Kd [3, 22]: 0.119 µM | Kd [4, 22]: 0.501 µM

AKQPATLRKY
Kd [5, 23]: 5.24 µM

ASHFISNSW
Kd ([6]; source organism: SARS-CoV1): ≥ 53 µM | Kd ([7]; source organism: SARS-CoV1): 11.4 µM | Kd ([8]; source organism: SARS-CoV1): 0.072 µM

ASKSLKPTK
Kd [4, 24]: 0.0151 µM

ASLFLPKLV
IC50 [9, 25]: 11.9 µM

ASTVIYRGT
IC50 [9, 25]: ≥ 222 µM

DLCGSVFLV
IC50 ([9]; source organism: Hepatitis C virus genotype 1): 5 µM

EEALKGLPIR
Kd [4, 26]: 0.609 µM

ESEIPNLDII
Kd [10, 23]: 7.19 µM

ETLEQMQRKH
Kd [11, 22]: 14 µM

ETTKKDLGI
Kd [11, 22]: ≥ 54.7 µM

FMSNGEHVP
IC50 [9, 24]: 57.6 µM

FPEHIFPAL
Kd ([1]; source organism: Mus musculus): 2.33 µM | Kd ([12]; source organism: Mus musculus): 0.937 µM | Kd ([13]; source organism: Mus musculus): 0.278 µM

GEGGVGSIL
Kd [13, 27]: 0.033 µM

GLYKSINVE
IC50 [9, 24]: 39.5 µM

GVVTKSGDY
Kd [11, 28]: 2.42 µM | Kd [5, 28]: 0.98 µM

GVVTRSGAY
Kd [11, 23]: 0.836 µM | Kd [5, 23]: 0.00928 µM

HAKSQCRPS
Kd [4, 29]: 0.854 µM

HVFFSEYIV
Kd [4, 24]: 0.883 µM

HVTRGAVLMY
Kd [11, 22]: 0.233 µM

IITASILLWY
Kd [10, 23]: 0.0932 µM

ILGTVSWNL
Kd ([14]; source organism: SARS-CoV1): 0.382 µM | Kd ([1]; source organism: SARS-CoV1): ≥ 22.9 µM | Kd ([8]; source organism: SARS-CoV1): 0.804 µM

IMAILCVPNA
Kd [4, 23]: 0.045 µM

ITDFAGKTV
Kd [10, 26]: ≥ 20.3 µM

IVQPENLEY
Kd [10, 30]: 0.512 µM | Kd [5, 30]: 0.11 µM

IVQYENLKY
Kd [10, 22]: 5.95 µM | Kd [5, 22]: 0.191 µM

KHKIFSPFK
Kd [4, 24]: 0.000886 µM

KIGDFGLATV
IC50 ([9]; source organism: Homo sapiens): 0.04 µM

KLSNAKWLA
Kd [14, 31]: 0.413 µM | Kd [15, 31]: 1.63 µM | Kd [7, 31]: 1.63 µM

KMNNDVFFM
Kd [14, 32]: 0.0023 µM | Kd [1, 32]: 0.618 µM

KRLEELLPA
IC50 [9, 25]: ≥ 683 µM

KSHAIYWDK
Kd [4, 24]: 0.0105 µM

KSKSRRLNL
Kd [4, 24]: 0.0126 µM

KTSHAKVLV
Kd [4, 24]: 0.0709 µM

KVKKKYAIG
Kd [4, 24]: 0.00155 µM

KYWRQMIIK
Kd [16, 33]: ≥ 20 µM | Kd [15, 33]: 0.0249 µM

LAGVSLLPVC
Kd [4, 26]: 15.9 µM

LNASQYANC
IC50 [9, 29]: ≥ 1400 µM

LNGAMVEYV
IC50 [9, 29]: 29.1 µM

LQKVPHTRY
Kd [15, 34]: 17.2 µM | Kd [7, 34]: 0.476 µM

LSEKEENMV
Kd [10, 28]: 6.47 µM

LSLLQLPRD
IC50 [9, 35]: ≥ 173 µM

LTLKPCHAL
Kd ([14]; source organism: Brucella suis): 4.76 µM | Kd ([6]; source organism: Brucella suis): 18 µM | Kd ([1]; source organism: Brucella suis): 0.546 µM | Kd ([12]; source organism: Brucella suis): 1.96 µM

LTRYALHGK
Kd [4, 24]: 0.000252 µM

LTSREVLLL
Kd [10, 22]: 0.288 µM

LTTPENITT
IC50 [9, 35]: ≥ 157 µM

MFGGVSWMV
Kd [17, 28]: 8.79 µM

MRSRWSRKML
Kd [4, 22]: 0.175 µM

MTRLPILLL
Kd [4, 24]: 0.000646 µM

NSLEVEDYGF
Kd [17, 23]: 5.43 µM

NVLDEKYNT
IC50 [9, 36]: ≥ 319 µM

PTIEDDKIVT
Kd [18, 24]: 13.8 µM | Kd [19, 24]: ≥ 20.6 µM | Kd [20, 24]: ≥ 69.8 µM

QIMECSRML
Kd [18, 24]: 0.62 µM | Kd [19, 24]: 1.38 µM | Kd [20, 24]: 0.948 µM

QQNNSFIIST
Kd [18, 24]: 7 µM | Kd [19, 24]: 5.04 µM | Kd [20, 24]: 5.71 µM

RGWGNGCGLF
Kd [17, 37]: 0.898 µM | Kd [5, 37]: 0.0154 µM

RIITILQDIV
Kd [18, 24]: 0.595 µM | Kd [19, 24]: 0.209 µM | Kd [20, 24]: 0.0948 µM

RLRYNLCKYL
Kd [18, 24]: 0.261 µM | Kd [19, 24]: 0.000304 µM | Kd [20, 24]: 15.7 µM

RNRVSTPQG
Kd [4, 28]: 0.132 µM

RRNNRVFFR
Kd [16, 38]: ≥ 20 µM | Kd [15, 38]: 0.0177 µM

RSQGPFDAV
IC50 [9, 25]: ≥ 163 µM

RSTPFNMLK
Kd [3, 23]: 0.00805 µM | Kd [21]: 0.0141 µM | Kd [4, 23]: 0.0204 µM

RTRAINKYS
Kd [4, 24]: 0.0127 µM

RVLSIPPTA
Kd [4, 28]: 0.118 µM

SFFLWVIIL
IC50 [9, 25]: 14.6 µM

SILNNPVDT
Kd [18, 24]: ≥ 47.1 µM | Kd [19, 24]: ≥ 30.6 µM | Kd [20, 24]: 14.2 µM

SIVCIVAAV
Kd [18, 24]: 0.00391 µM | Kd [19, 24]: 0.00282 µM | Kd [20, 24]: 0.00354 µM

SLSNLDFRL
Kd [18, 24]: 1.31 µM | Kd [19, 24]: 1.76 µM | Kd [20, 24]: 1.38 µM

SQAKKPEVRI
Kd [18, 24]: 10.7 µM | Kd [19, 24]: 2.37 µM | Kd [20, 24]: 5.86 µM

SSTNQLRSV
IC50 [9, 25]: 48.2 µM

STAIELGAW
Kd [8, 39]: 0.0133 µM

SVDIETAIRA
Kd [18, 24]: 2.83 µM | Kd [19, 24]: 7.62 µM | Kd [20, 24]: 1.03 µM

TEAEKQLQQ
IC50 [9, 25]: ≥ 338 µM

TEQAFYTRV
IC50 [9, 24]: ≥ 98.4 µM

TGILGSLGL
IC50 [9, 35]: ≥ 92.7 µM

TGPCPGDYA
IC50 [9, 35]: 34.9 µM

TIAHINTLI
Kd [18, 24]: 0.0214 µM | Kd [19, 24]: 0.02 µM | Kd [20, 24]: 0.571 µM

TINVNSLAL
Kd [18, 24]: 1.98 µM | Kd [19, 24]: 1.54 µM | Kd [20, 24]: 2.18 µM

TLKDAMLQL
Kd [14, 39]: 0.116 µM

TLLCVLAALV
Kd [18, 40]: 0.00461 µM | Kd [19, 40]: 0.0774 µM | Kd [20, 40]: 0.0646 µM

TLLQAAPTL
IC50 [9, 27]: 0.05 µM

TLVPQEHYV
Kd ([14]; source organism: SARS-CoV1): 0.119 µM | Kd ([6]; source organism: SARS-CoV1): ≥ 43.2 µM | Kd ([1]; source organism: SARS-CoV1): 0.0795 µM

TNLEYKTLC
IC50 [9, 36]: ≥ 773 µM

TTPENITTA
IC50 [9, 35]: 19 µM

TVGMSIVCIV
Kd [18, 24]: 0.528 µM | Kd [19, 24]: 0.468 µM | Kd [20, 24]: 0.2 µM

VIIMAINVFT
Kd [18, 24]: 0.32 µM | Kd [19, 24]: 0.82 µM | Kd [20, 24]: 0.674 µM

VIPFDDIVRT
Kd [18, 24]: ≥ 62.7 µM | Kd [19, 24]: ≥ 50.3 µM | Kd [20, 24]: 18.2 µM

VLFIHPLDA
Kd [14, 41]: 0.0649 µM | Kd [1, 41]: ≥ 20 µM

VLPEEQDQNY
Kd [10, 26]: 11 µM | Kd [5, 26]: 6.87 µM

VLTLATGPVL
Kd [4, 28]: 1.5 µM

VMDTLNGIMM
Kd [18, 24]: 0.00764 µM | Kd [19, 24]: 5.16 µM | Kd [20, 24]: 0.403 µM

VVLTGGTGV
IC50 ([9]; source organism: Variola virus): 3.8 µM

WLRAKRKPAM
Kd [18, 24]: 4.67 µM | Kd [19, 24]: ≥ 20.1 µM | Kd [20, 24]: 11.9 µM

WTEQYKFQA
Kd [10, 22]: ≥ 20.2 µM

YIALCKVTV
Kd [18, 24]: 0.0122 µM | Kd [19, 24]: 0.024 µM | Kd [20, 24]: 0.0188 µM

YSDRRWCFD
Kd [10, 22]: 1.07 µM

YTFAISYCRA
Kd [18, 24]: 0.325 µM | Kd [19, 24]: 0.0376 µM | Kd [20, 24]: 0.0374 µM

YVGDTSMMVI
Kd [18, 24]: 0.408 µM | Kd [19, 24]: 0.22 µM | Kd [20, 24]: 0.324 µM

YVSPTEMVDV
Kd [18, 24]: 0.0633 µM | Kd [19, 24]: 0.0498 µM | Kd [20, 24]: 0.00516 µM

YVVIVENDNV
Kd [18, 24]: 2.33 µM | Kd [19, 24]: 11 µM | Kd [20, 24]: 0.0597 µM
